The values below come from patent publication US20190203174A1.

Assay [1] addresses FVIII-2191-2220 presented on HLA-DR1 by irradiated DR1-PBMCs (human). Put plainly: cell-based or functional assay.
Assay [2] addresses PE-labeled DR1 tetramers loaded with FVIII-2191-2220 (human) (UniProt P01903). Put plainly: flow cytometry, DR1 tetramer staining of transduced CD4 T cells. A general note: In flow cytometry, cells or beads pass a laser one at a time.
Assay [3] has the same target. Put plainly: flow cytometry, DR1 tetramer staining of transduced naïve CD4 T cells.
Assay [4] has the same target. Put plainly: flow cytometry, PE-labeled DR1 tetramer staining of peptide-expanded transduced T effectors.

B1: FVIII C2-specific human T cell receptor (TCR17195) (TCR)
chain: RQVARVIVFLTLSTLSLAKTTQPISMDSYEGQEVNITCSHNNIATNDYITWYQQFPSQGPRFIIQGYKTKVTNEVASLFIPADRKSSTLSLPRVSLSDTAVYYCLVGDAPNSGNTPLVFGKGTRLSVIANIQNPDPAVYQLRDSKSSDKSVCLFTDFDSQTNVSQSKDSDVYITDKTVLDMRSMDFKSNSAVAWSNKSDFACANAFNNSIIPEDTFFPSPESSCDVKLVEKSFETDTNLNFQNLSVIGFRILLLKVAGFNLLMTLRLWSSRAKRGSGATNFSLLKQAGDVEENPGPMLLLLLLLGPGSGLGAVVSQHPSRVICKSGTSVKIECRSLDFQATTMFWYRQFPKKSLMLMATSNEGSKATYEQGVEKDKFLINHASLTLSTLTVTSAQPEDSSFYICSAHTRANYGYTFGSGTRLTVVEDLNKVFPPEVAVFEPSEAEISHTQKATLVCLATGFFPDHVELSWWVNGKEVHSGVSTDPQPLKEQPALNDSRYCLSSRLRVSATFWQNPRNHFRCQVQFYGLSENDEWTQDRAKPVTQIVSAEAWGRADCGFTSVSYQQGVLSATILYEILLGKATLYAVLVSALVLMAMVKRKDF
In assay [1], B1 displayed an expansion of GFP cells against culture with pOVA of 50 fold; a proliferation of GFP cells (dye dilution, 4 days) of 100%; a proportion of GFP cells after culture with FVIII-2191-2220 of 61 to 81%. Also, the fold tetramer staining intensity over non-specific tetramer staining in assay [2] was above 10 fold. In assay [3], the percent tetramer+ of the total CD4 population amounted to 0.2% and the percent tetramer+ of the transduced cells is below 5%. In addition, in assay [4], the percent tetramer+ came out at 24%.
